In patent publication US11225653B2, “Methods and compounds for reducing threonyl-tRNA synthetase activity” (University of Vermont and State Agricultural College, priority 2012, dated 2022):
Changes are numbered by the printed parent chain. In names and notes the source's numbering stands. Entries after “also recorded” stand apart in the source; their conditions may differ.

B1: TARS: N-terminal His6-tagged human threonyl-tRNA synthetase expressed and purified from E. coli (protein, UniProt P26639 1-723, looked up)
Threonine--tRNA ligase 1, …: MFEEKASSPSGKMGGEEKPIGAGEEKQKEGGKKKNKEGSGDGGRAELNPWPEYIYTRLEMYNILKAEHDSILAEKAEKDSKPIKVTLPDGKQVDAESWKTTPYQIACGISQGLADNTVIAKVNNVVWDLDRPLEEDCTLELLKFEDEEAQAVYWHSSAHIMGEAMERVYGGCLCYGPPIENGFYYDMYLEEGGVSSNDFSSLEALCKKIIKEKQAFERLEVKKETLLAMFKYNKFKCRILNEKVNTPTTTVYRCGPLIDLCRGPHVRHTGKIKALKIHKNSSTYWEGKADMETLQRIYGISFPDPKMLKEWEKFQEEAKNRDHRKIGRDQELYFFHELSPGSCFFLPKGAYIYNALIEFIRSEYRKRGFQEVVTPNIFNSRLWMTSGHWQHYSENMFSFEVEKELFALKPMNCPGHCLMFDHRPRSWRELPLRLADFGVLHRNELSGALTGLTRVRRFQQDDAHIFCAMEQIEDEIKGCLDFLRTVYSVFGFSFKLNLSTRPEKFLGDIEVWDQAEKQLENSLNEFGEKWELNSGDGAFYGPKIDIQIKDAIGRYHQCATIQLDFQLPIRFNLTYVSHDGDDKKRPVIVHRAILGSVERMIAILTENYGGKWPFWLSPRQVMVVPVGPTCDEYAQKVRQQFHDAKFMADIDLDPGCTLNKKIRNAQLAQYNFILVVGEKEKISGTVNIRTRDNKVHGERTISETIERLQQLKEFRSKQAEEEF
modifications: N-terminal His6 tag
notes: N-terminal His6-tagged human threonyl-tRNA synthetase expressed and purified from E. coli
B2: R442A TARS: aminoacylation-deficient mutant of hTARS, active site Arg442 substituted with alanine (protein, UniProt P26639 1-723, looked up, variant R442A)
Threonine--tRNA ligase 1, …: B1 Threonine--tRNA ligase 1, … with R442A

What was measured:
HUVECs [1] = assay: Quantitative RT-PCR of TARS mRNA; assay type: cell-based, human; details: HUVECs exposed to 50 ng/ml VEGF or TNF-α
Procedure: Quantitative RT-PCR—Total RNA was extracted from cells using the RNeasy column protocol and cDNA was generated using an Omniscript reverse transcriptase assay according to the manufacturer's instructions (Qiagen, Frederick, Md.). Primers and probes for TARS and β2-microglobulin were Assays-on-Demand (Applied Biosystems, [Life Technologies, Carlsbad, Calif.]). RT-qPCR was performed using an ABI prism 7700 Sequence Detection System (Applied Biosystems). The relative quantity of mRNA level was determined using the comparative CT (ΔΔCT) method using β2-microglobulin to normalize mRNA level (Cassavaugh, Hale et al. 2011).

[2] = test system: Human umbilical vein endothelial cells (HUVECs); assay: In vitro endothelial tube formation assay; assay type: cell-based; details: 100 nM purified recombinant human TARS in low serum media (0.2% FBS), 6 h
Procedure: In vitro Tube Formation Assay-Tube formation assays were performed as described (Arnaoutova and Kleinman 2010; Cassavaugh, Hale et al. 2011). Human Umbilical Vein Endothelial Cells (HUVECs) were seeded in 48-well plates (1.5×10^4 cells/well) coated with 100 μl of Matrigel™ Basement Membrane Matrix Growth Factor Reduced (BD Biosciences, San Jose, Calif.) and incubated in Clonetics® EGM®-2 complete media (Lonza, Annandale, N.J.) or EGM®-2 with reduced serum (0.2% fetal bovine serum). Cells were incubated at 37° C. for 6 h then fixed in 10% formalin. Fixed samples were imaged by phase-contrast microscopy or stained with Oregon Green 488 Phalloidin (Molecular Probes, Eugene, Oreg.) then imaged with fluorescence microscopy (2× objective). Number of tubes and tube lengths (in pixels) were quantified using the Simple Neurite Tracer (Longair, Baker et al. 2011) plug-in on ImageJ software (NIH). Statistical analysis of one-way ANOVA was performed with GraphPad Software. Multiple comparisons were performed using the Tukey Test.

HUVECs [3] = assay: Endothelial cell proliferation assay (alamarBlue); assay type: cell-based, human; details: HUVECs in low serum (0.2% FBS) media
Procedure: Endothelial Cell Proliferation Assay—The […] alamarBlue® (Invitrogen) reagent was used to assess cell proliferation (Ahmed, Gogal et al. 1994). HUVECs were seeded in a 96-well dish (1×10^3 cells/well) and grown for 48 h in EGM®-2 media. Cells were incubated in 0.2% FBS EGM®-2 media or EGM®-2 complete media as indicated; VEGF (50 ng/ml) and media alone served as controls. After 48 h, 72 h, or 96 h in culture, 10 μl/well premixed alamarBlue® (Invitrogen) was added and after 3 h at 37° C. the amount of reduced alamarBlue® was quantified by fluorescence (excitation at 530 nm, emission at 590 nm) on a microplate reader (Synergy™ HT, BioTek, Winooski, Vt.).

[4] = test system: chorioallantoic membrane (CAM); assay: Chick chorioallantoic membrane (CAM) assay; assay type: in vivo, chicken; details: for vessel formation / vascularization on the CAM after applied protein: purified protein applied daily to sponge, scored over 72 h
Procedure: Chick Chorioallantoic Membrane Assay-Fertilized chicken eggs (Sunrise Farms, Catskill, N.Y.) day 1-2 post-laying were incubated in a humidified incubator at 37° C. for 72 h. Cleaned eggs were cracked and plated in a sterile 10 cm^2 tissue culture-treated dish and incubated at 37° C. for another 7 days. On developmental day 10, 1 mm^3 sterile gelatin sponge pieces (Surgifoam®; Johnson & Johnson Wound Management, Somerville, N.J.) were placed within the outer one-third of the membrane between large vessels. 40 μg/ml human bFGF and 2 μg/mL human VEGF were used as pro-angiogenic control compounds; 100 μg/mL retinoic acid (Sigma-Aldrich, St. Louis, Mo.) diluted in phosphate-buffered saline (PBS) was used as an angiostatic control. All compounds were applied in 10 μl to the CAM every 24 h for 72 h. Images were taken using a Leica MZ6 stereomicroscope every 24 h. Compounds were scored according to a modified version of Intensity Scoring as previously described (Ribatti, Nico et al. 2006). Briefly, each experimental condition was given a blinded score from 0-5 based on the change in the extent of vessel convergence and formation in proximity to the sponge from day 0 to day 3. Total score is averaged individual experimental condition scores from at least 15 replicates.
Fertilized chicken embryos were cultured ex-ova and, starting at developmental day 10, agents were applied daily to gelfoam sponges on the CAM. Images were recorded daily over 72 h and scored blindly according to a modified version Intensity Scoring as previously described (Ribatti, Nico et al. 2006). Additional details regarding methods are provided in the Methods and Materials section of Example 1.

HUVEC = assay: Transwell migration assay; assay type: cell-based, human; details: 100 nM TARS or 100 nM LARS in migration compartment, 4 h
Procedure: Transwell Migration Assay—Migration was assessed using transwell inserts (Svensson, Kucharzewska et al. 2011). HUVEC cultures were serum-depleted overnight in Clonetics® EGM®-2 modified with 0.2% fetal bovine serum then 5×10^4 cells were plated in 90% EBM®-2, 10% EGM®-2 in the upper chamber of 0.2% gelatin-coated 24-well 8 μm Transwell® inserts (Corning, Tewksbury, Mass.) with 90% EBM®-2, 10% EGM®-2 media plus 50 ng/ml VEGF, 1-100 nM TARS protein, or 10 nM BC194 in the lower chamber. Cultures were incubated for 4 h, fixed in 10% formalin, and stained with 10 μg/ml DAPI solution (Roche) following removal of cells from the top layer of the chamber with a cotton swab. Migrated cells were imaged using a 4× objective on the Olympus 1×70 Inverted microscope (Olympus). DAPI-stained nuclei were counted using ImageJ software.

human TARS [5] = assay: Steady state aminoacylation assay; assay type: biochemical; details: purified protein
Procedure: Steady State Aminoacylation Assay-The aminoacylation activities of the TARS constructs were determined using modifications to established procedures ([…] et al 2008). Briefly, reaction mixtures consisted of 20 mM Tris-HCl pH 8.0, 100 mM KCl, 10 mM MgCl2, 1 mM dithiothreitol, 2 mM ATP, 2.5 U pyrophosphatase (Roche), 80 μM threonine, 20 μM [14C]-threonine, and 5 μM of E. coli or human […]. Reactions were initiated with the addition of 0.25-0.75 μM TARS and run at 37° C. Aliquots were taken at varying time points and spotted onto Whatmann 3MM paper filters pre-soaked in 5% trichloroacetic acid (TCA). Upon completion, the filters were washed 3 times in excess TCA, once in 95% ethanol, and dried under a heating lamp. The formation of […] was detected by scintillation counter and the activity determined by linear regression of […] formed per active site per unit time.

human TARS [6] = assay: Ap4A formation assay; assay type: biochemical; details: 5 μM enzyme, 2 mM threonine, 2 mM ATP
Procedure: TARS purification and active site determination were performed as previously described (Williams, Mirando et al., 2013). TARS non-canonical catalytic activities were characterized using modifications from published methods (Guo, Chong et al. 2009). For Ap4A reactions 5 μM of wildtype TARS or R442A TARS were incubated for 10 minutes on ice with 2 mM threonine, and 10 μM BC194 or borrelidin as indicated in FIG. 17C. Reactions were initiated using 2 mM ATP with trace amounts of [α-^32P]-ATP as label. At specific time points aliquots were quenched in 3 volumes of 0.1% SDS, 400 mM sodium acetate and resolved on polyethyleneimine-cellulose plates by thin-layer chromatography (TLC) in 3 M NH4 (SO4)2 and 2% EDTA. Radioactive counts were identified by phosphorimaging and products quantified as fractions of total ATP added. The quantitation of product was normalized to take into account the fact that each Ap4A molecule has two equivalents of radioactive phosphorus.

human TARS [7] = assay: Ap4G formation assay; assay type: biochemical; details: 2 mM ATP, 2 mM threonine, 2 mM GTP
human TARS [8] = assay: GTPase assay (GTP hydrolysis); assay type: biochemical; details: 2 mM GTP

GTP hydrolysis (human TARS [8])	Molecule	TARS mRNA / transcription (HUVECs [1])	number of tube branches after exogenous protein [2]	cell proliferation with TARS (HUVECs [3])	sensitivity of protein-stimulated CAM vessel formation to BC194 ([4]; protein applied together with BC194)	vessel formation / vascularization on the CAM after applied protein [4]	migration of endothelial cells (HUVEC)	aminoacylation activity of the protein (human TARS [5])	production of Ap4A (human TARS [6])	rate of Ap4G formation (human TARS [7])
–	TNF-α	neither VEGF nor TNF-α induced an increase; also recorded: do not induce TARS transcription	–	–	–	–	–	–	–	–
–	VEGF	neither VEGF nor TNF-α induced an increase; also recorded: do not induce TARS transcription	–	–	–	–	–	–	–	–
0.3033 GDP/active site/min	B1	–	significantly increased the number of tube branches; also recorded: promotes angiogenesis	did not exert a significant effect on cell proliferation; also recorded: does not significantly affect cell proliferation	sensitive to BC194	stimulated vessel formation; also recorded: induces in vivo angiogenesis	significantly increased migration of endothelial cells; also recorded: selectively induces migration of endothelial cells	exhibits aminoacyl synthetase activity	0.1391 Ap4A/active site/min	0.1639 Ap4G/active site/min
0.2137 GDP/active site/min	B2	–	–	–	–	virtually indistinguishable from wild type	–	essentially no aminoacylation activity; also recorded: virtually negligible aminoacylation function	no appreciable activity; also recorded: blocked	not catalyzed; also recorded: blocked
